In patent US20210340217A1, “NOVEL PEPTIDES AND COMBINATION OF PEPTIDES FOR USE IN IMMUNOTHERAPY AGAINST OVARIAN CANCER AND OTHER CANCERS” (Immatics Biotechnologies GmbH, priority 2017, published 2021):

Molecular target: HLA-B*44:02 (Homo sapiens, UniProt P01889, A223V/A65T/A93T/A95T/D201E/D98Y/E176V/E187L/E204Q/E69K/G107R/H137Y/K202T/L105A/L119I/N104T/N87E/Q56L/Q94N/R106L/R155S/R180D/S101N/S121R/S35A/S48T/T118I/V36M/W191S/Y140D/Y91S)
Assay: MHC binding assay (UV-ligand exchange, beta2m ELISA)
Conditions: peptide exchange yield
Description: Candidate peptides for T cell based therapies according to the present invention were further tested for their MHC binding capacity (affinity). The individual peptide-MHC complexes were produced by UV-ligand exchange, where a UV-sensitive peptide is cleaved upon UV-irradiation, and exchanged with the peptide of interest as analyzed. Only peptide candidates that can effectively bind and stabilize the peptide-receptive MHC molecules prevent dissociation of the MHC complexes. To determine the yield of the exchange reaction, an ELISA was performed based on the detection of the light chain (β2m) of stabilized MHC complexes. The assay was performed as generally described in Rodenko et al. (Rodenko et al., 2006).
96 well MAXISorp plates (NUNC) were coated over night with 2 ug/ml streptavidin in PBS at room temperature, washed 4× and blocked for 1 h at 37° C. in 2% BSA containing blocking buffer. Refolded HLA-A*02:01/MLA-001 monomers served as standards, covering the range of 15-500 ng/ml. Peptide-MHC monomers of the UV-exchange reaction were diluted 100-fold in blocking buffer. Samples were incubated for 1 h at 37° C., washed four times, incubated with 2 ug/ml HRP conjugated anti-β2m for 1h at 37° C., washed again and detected with TMB solution that is stopped with […]. Absorption was measured at 450 nm. Candidate peptides that show a high exchange yield (preferably higher than 50%, most preferred higher than 75%) are generally preferred for a generation and production of antibodies or fragments thereof, and/or T cell receptors or fragments thereof, as they show sufficient avidity to the MHC molecules and prevent dissociation of the MHC complexes.

Row | Peptide exchange | Substance
1 | “+++” (>50 = +++) | 56 (SEPDTTASW; listed as Homo sapiens) [compound 56]
2 | “+++” (>50 = +++) | 57 (QESDLRLFL; listed as Homo sapiens) [compound 57]
3 | “++” (>20% = ++) | 58 (GEMEQKQL; listed as Homo sapiens) [compound 58]
4 | “+++” (>50 = +++) | 59 (SENVTMKVV; listed as Homo sapiens) [compound 59]
5 | “+++” (>50 = +++) | 173 (AEAQVGDERDY; listed as Homo sapiens) [compound 173]
6 | “++++” (>75% = ++++) | 174 (AEATARLNVF; listed as Homo sapiens) [compound 174]
7 | “++” (>20% = ++) | 175 (AEIEPKADG; listed as Homo sapiens) [compound 175]
8 | “+++” (>50 = +++) | 176 (AEIEPKADGSW; listed as Homo sapiens) [compound 176]
9 | “+++” (>50 = +++) | 177 (TEVGTMNLF; listed as Homo sapiens) [compound 177]
10 | “+++” (>50 = +++) | 178 (NELFRDGVNW; listed as Homo sapiens) [compound 178]
11 | “++” (>20% = ++) | 179 (REAGDEFEL; listed as Homo sapiens) [compound 179]
12 | “++” (>20% = ++) | 180 (REAGDEFELRY; listed as Homo sapiens) [compound 180]
13 | “++” (>20% = ++) | 181 (GEGPKTSW; listed as Homo sapiens) [compound 181]
14 | “+++” (>50 = +++) | 182 (KEATEAQSL; listed as Homo sapiens) [compound 182]
15 | “++” (>20% = ++) | 183 (YEKGIMQKV; listed as Homo sapiens) [compound 183]
16 | “+++” (>50 = +++) | 184 (AELEALTDLW; listed as Homo sapiens) [compound 184]
17 | “++” (>20% = ++) | 185 (AERQPGAASL; listed as Homo sapiens) [compound 185]
18 | “++” (>20% = ++) | 186 (REGPEEPGL; listed as Homo sapiens) [compound 186]
19 | “+++” (>50 = +++) | 187 (GEAQTRIAW; listed as Homo sapiens) [compound 187]
20 | “+++” (>50 = +++) | 188 (AEFAKKQPWW; listed as Homo sapiens) [compound 188]

Row | Peptide exchange | Substance
21 | “++” (>20% = ++) | 189 (KEFLFNMY; listed as Homo sapiens) [compound 189]
22 | “++” (>20% = ++) | 190 (YEVARILNL; listed as Homo sapiens) [compound 190]
23 | “+++” (>50 = +++) | 191 (EEDAALFKAW; listed as Homo sapiens) [compound 191]
24 | “+++” (>50 = +++) | 192 (YEFKFPNRL; listed as Homo sapiens) [compound 192]
25 | “++” (>20% = ++) | 193 (LEAQQEAL; listed as Homo sapiens) [compound 193]
26 | “++” (>20% = ++) | 194 (KEVDPTSHSY; listed as Homo sapiens) [compound 194]
27 | “++” (>20% = ++) | 195 (AEDKRHYSV; listed as Homo sapiens) [compound 195]
28 | “+++” (>50 = +++) | 196 (REMPGGPVW; listed as Homo sapiens) [compound 196]
29 | “+++” (>50 = +++) | 197 (AEVLLPRLV; listed as Homo sapiens) [compound 197]
30 | “++” (>20% = ++) | 198 (QEAARAAL; listed as Homo sapiens) [compound 198]
31 | “+++” (>50 = +++) | 199 (REIDESLIFY; listed as Homo sapiens) [compound 199]
32 | “+++” (>50 = +++) | 200 (AESIPTVSF; listed as Homo sapiens) [compound 200]
33 | “+++” (>50 = +++) | 201 (AETILTFHAF; listed as Homo sapiens) [compound 201]
34 | “+++” (>50 = +++) | 202 (HESEATASW; listed as Homo sapiens) [compound 202]
35 | “++” (>20% = ++) | 203 (IEHSTQAQDTL; listed as Homo sapiens) [compound 203]
36 | “+++” (>50 = +++) | 204 (RETSTSEETSL; listed as Homo sapiens) [compound 204]
37 | “++” (>20% = ++) | 205 (SEITRIEM; listed as Homo sapiens) [compound 205]
38 | “+++” (>50 = +++) | 206 (SESVTSRTSY; listed as Homo sapiens) [compound 206]
39 | “+++” (>50 = +++) | 207 (TEARATSDSW; listed as Homo sapiens) [compound 207]
40 | “++” (>20% = ++) | 208 (TEVSRTEAI; listed as Homo sapiens) [compound 208]

Row | Peptide exchange | Substance
41 | “++” (>20% = ++) | 209 (TEVSRTEL; listed as Homo sapiens) [compound 209]
42 | “+++” (>50 = +++) | 210 (VEAADIFQNF; listed as Homo sapiens) [compound 210]
43 | “+++” (>50 = +++) | 211 (EEKVFPSPLW; listed as Homo sapiens) [compound 211]
44 | “+++” (>50 = +++) | 212 (MEQKQLQKRF; listed as Homo sapiens) [compound 212]
45 | “++” (>20% = ++) | 213 (KESIPRWYY; listed as Homo sapiens) [compound 213]
46 | “++” (>20% = ++) | 214 (VEQTRAGSLL; listed as Homo sapiens) [compound 214]
47 | “++” (>20% = ++) | 215 (SEDGLPEGIHL; listed as Homo sapiens) [compound 215]
48 | “+++” (>50 = +++) | 396 (REASGLLSL; listed as Homo sapiens) [compound 396]
49 | “++” (>20% = ++) | 397 (REGDTVQLL; listed as Homo sapiens) [compound 397]
50 | “++” (>20% = ++) | 398 (SFEQVVNELF; listed as Homo sapiens) [compound 398]
51 | “+++” (>50 = +++) | 399 (RELLHLVTL; listed as Homo sapiens) [compound 399]
52 | “+” (>10% = +) | 400 (GEIEIHLL; listed as Homo sapiens) [compound 400]
53 | “++” (>20% = ++) | 402 (RELANDELIL; listed as Homo sapiens) [compound 402]
54 | “++” (>20% = ++) | 403 (EEAQWVRKY; listed as Homo sapiens) [compound 403]
55 | “++” (>20% = ++) | 404 (NEAIMHQY; listed as Homo sapiens) [compound 404]
56 | “+” (>10% = +) | 405 (NEIWTHSY; listed as Homo sapiens) [compound 405]
57 | “+” (>10% = +) | 406 (EDGRLVIEF; listed as Homo sapiens) [compound 406]
58 | “++” (>20% = ++) | 407 (AEHEGVSVL; listed as Homo sapiens) [compound 407]
59 | “++” (>20% = ++) | 408 (LEKALQVF; listed as Homo sapiens) [compound 408]
